Reference: the Immune Epitope Database (IEDB)

Key:
[1] = target: HLA-B*48:01; test: IEDB peptide-MHC binding, purified MHC/direct/fluorescence; filed as Kd, often an IC50 or EC50 that approximates it; ≥ and ≤ were set here for values at or beyond the usual limits of such assays; conditions: source organism: Camelpox virus M-96
[2] = target: HLA-A*31:01; test: as above; conditions: source organism: Camelpox virus M-96
[3] = target: HLA-B*08:01; test: as above; conditions: source organism: Variola virus
[4] = target: HLA-B*58:01; test: as above; conditions: source organism: Camelpox virus M-96
[5] = target: HLA-B*07:02; test: as above; conditions: source organism: Camelpox virus M-96
[6] = target: HLA-A*03:01; test: as above; conditions: source organism: Camelpox virus M-96
[7] = target: HLA-B*57:01; test: as above; conditions: source organism: Camelpox virus M-96
[8] = target: HLA-B*08:03; test: as above; conditions: source organism: Variola virus
[9] = target: HLA-A*26:02; test: as above; conditions: source organism: Variola virus
[10] = target: HLA-B*18:01; test: as above; conditions: source organism: Camelpox virus M-96
[11] = target: HLA-B*15:01; test: as above; conditions: source organism: Camelpox virus M-96
[12] = target: HLA-B*46:01; test: as above; conditions: source organism: Camelpox virus M-96
[13] = target: HLA-A*69:01; test: as above; conditions: source organism: Camelpox virus M-96
[14] = target: HLA-B*15:17; test: as above; conditions: source organism: Camelpox virus M-96
[15] = target: HLA-A*68:02; test: as above; conditions: source organism: Camelpox virus M-96
[16] = target: HLA-B*40:01; test: as above; conditions: source organism: Camelpox virus M-96
[17] = target: HLA-A*11:01; test: as above; conditions: source organism: Camelpox virus M-96
[18] = target: HLA-A*01:01; test: as above; conditions: source organism: Camelpox virus M-96
[19] = target: HLA-A*02:03; test: IEDB peptide-MHC binding, purified MHC/competitive/fluorescence; filed as Kd, often an IC50 or EC50 that approximates it; ≥ and ≤ were set here for values at or beyond the usual limits of such assays
[20] = target: HLA-A*02:01; test: as above
[21] = target: HLA-A*26:03; test: as above; conditions: source organism: Vaccinia virus Copenhagen
[22] = target: HLA-C*07:02; test: IEDB peptide-MHC binding, purified MHC/direct/fluorescence; filed as Kd, often an IC50 or EC50 that approximates it; ≥ and ≤ were set here for values at or beyond the usual limits of such assays; conditions: source organism: Vibrio cholerae
[23] = target: HLA-B*53:01; test: IEDB peptide-MHC binding, purified MHC/competitive/fluorescence; filed as Kd, often an IC50 or EC50 that approximates it; ≥ and ≤ were set here for values at or beyond the usual limits of such assays; conditions: source organism: Vibrio cholerae
[24] = target: HLA-A*66:01; test: as above; conditions: source organism: Vibrio cholerae
[25] = target: HLA-B*08:01; test: as above; conditions: source organism: Vibrio cholerae
[26] = target: HLA-A*23:01; test: as above; conditions: source organism: Vibrio cholerae
[27] = target: HLA-B*58:01; test: as above; conditions: source organism: Vibrio cholerae
[28] = target: HLA-B*44:02; test: as above; conditions: source organism: Vibrio cholerae
[29] = target: HLA-B*07:02; test: as above; conditions: source organism: Vibrio cholerae
[30] = target: HLA-A*03:01; test: as above; conditions: source organism: Vibrio cholerae
[31] = target: HLA-B*27:05; test: as above; conditions: source organism: Vibrio cholerae
[32] = target: HLA-B*14:02; test: as above; conditions: source organism: Vibrio cholerae
[33] = target: HLA-B*57:01; test: as above; conditions: source organism: Vibrio cholerae
[34] = target: HLA-A*02:19; test: as above; conditions: source organism: Vibrio cholerae
[35] = target: HLA-A*29:02; test: as above; conditions: source organism: Vibrio cholerae
[36] = target: HLA-B*18:01; test: as above; conditions: source organism: Vibrio cholerae
[37] = target: HLA-A*26:01; test: as above; conditions: source organism: Vibrio cholerae
[38] = target: HLA-B*15:01; test: as above; conditions: source organism: Vibrio cholerae
[39] = target: HLA-B*46:01; test: as above; conditions: source organism: Vibrio cholerae
[40] = target: HLA-B*51:01; test: as above; conditions: source organism: Vibrio cholerae
[41] = target: HLA-A*30:02; test: as above; conditions: source organism: Vibrio cholerae
[42] = target: HLA-B*15:17; test: as above; conditions: source organism: Vibrio cholerae
[43] = target: HLA-A*68:02; test: as above; conditions: source organism: Vibrio cholerae
[44] = target: HLA-B*40:01; test: as above; conditions: source organism: Vibrio cholerae
[45] = target: HLA-A*24:03; test: as above; conditions: source organism: Vibrio cholerae
[46] = target: HLA-A*11:01; test: as above; conditions: source organism: Vibrio cholerae
[47] = target: HLA-A*01:01; test: as above; conditions: source organism: Vibrio cholerae
[48] = target: HLA-A*02:12; test: as above; conditions: source organism: Vibrio cholerae
[49] = source organism: Vaccinia virus Copenhagen
[50] = source organism: Vibrio cholerae

For GLYRLNFRR, the Kd [1] was ≥ 20 µM, the Kd [2] was 0.0017 µM and the Kd [3] was ≥ 20 µM. The Kd [4] was ≥ 20 µM, the Kd [5] was ≥ 20 µM and the Kd [6] was 0.242 µM. The Kd [7] was ≥ 20 µM, the Kd [8] was ≥ 20 µM and the Kd [9] was ≥ 20 µM. For the same sequence, the Kd [10] was ≥ 20 µM, the Kd [11] was ≥ 20 µM and the Kd [12] was ≥ 20 µM. For the same sequence, the Kd [13] was ≥ 20 µM, the Kd [14] was ≥ 20 µM and the Kd [15] was ≥ 20 µM. The Kd [16] was ≥ 20 µM, the Kd [17] was 0.237 µM and the Kd [18] was ≥ 20 µM. For the same sequence, the Kd [19, 49] was ≥ 20 µM, the Kd [20, 49] was 0.966 µM and the Kd [21] was ≥ 20 µM.

With TRAPAPFPL the Kd [22] was 0.045 µM, the Kd [23] was ≥ 5 µM and the Kd [24] was ≥ 5 µM. For the same sequence, the Kd [19, 50] was ≥ 20 µM, the Kd [25] was ≥ 5 µM and the Kd [26] was 3.5 µM. The Kd [27] was ≥ 5 µM, the Kd [28] was ≥ 5 µM and the Kd [29] was ≥ 5 µM. For the same sequence, the Kd [20, 50] was ≥ 20 µM, the Kd [30] was ≥ 20 µM and the Kd [31] was 0.0123 µM. For the same sequence, the Kd [32] was 0.565 µM, the Kd [33] was ≥ 20 µM and the Kd [34] was ≥ 20 µM. For the same sequence, the Kd [35] was ≥ 20 µM, the Kd [36] was ≥ 20 µM and the Kd [37] was ≥ 20 µM. For the same sequence, the Kd [38] was ≥ 20 µM, the Kd [39] was ≥ 20 µM and the Kd [40] was ≥ 20 µM. For the same sequence, the Kd [41] was ≥ 5 µM, the Kd [42] was ≥ 20 µM and the Kd [43] was 0.13 µM. For the same sequence, the Kd [44] was ≥ 5 µM, the Kd [45] was ≥ 20 µM and the Kd [46] was ≥ 5 µM. The Kd [47] was ≥ 5 µM and the Kd [48] was ≥ 20 µM.
